Measurements taken from paper PMC9783754 (International Journal of Molecular Sciences, 2022).

Columns and labels:
[1] = target: T1, Recombinant human sTNF (soluble form of tumor necrosis factor) (human, UniProt P01375 77-233); assay: SPR; ligand (50 μg/mL sTNF or TNF-β) immobilised on a ProteOn GLH chip by amine coupling; chip flushed with running buffer for two days and several times with 10 mM glycine pH 3.3 to dissociate sTNF multimers (monomeric sTNF); Ca2+-loaded S100 protein as analyte, 10 nM–2 µM; 25 °C; 10 mM HEPES, 150 mM NaCl, 1 mM CaCl2, 0.05% TWEEN 20, pH 7.4; heterogeneous ligand model; details: both partners purified
T1 construct: additional N-terminal methionine, stated in words; tumor necrosis factor, human, soluble form (157 residues), residues 77-233 of UniProt entry P01375; Monomeric on the SPR chip after long flushing and glycine pH 3.3 washes; multimeric in solution in the fluorimetric titrations and cross-linking; also called TNF-α; TNF ligand superfamily member 2; source: bought: Prospec-Tany Technogene (catalog # …)

[2] = target: T1, Recombinant human sTNF (soluble form of …); assay: as above; details: both partners purified; remark: listed apart in the source
[3] = target: the molecule itself; assay: cross-linking; 4 µM sTNF and/or S100 protein (sTNF to S100 1:0, 0:1, 1:0.5, 1:1, 1:2), 20 mM EDAC and 5 mM sulfo-NHS, 25 °C, 1.5 h; 10 mM HEPES, 150 mM NaCl, pH 7.4 with 1 mM CaCl2; SDS-PAGE with silver staining
[4] = target: T1, Recombinant human sTNF (soluble form of …); assay: other fluorescence titration; 280 nM (S100A11) or 0.5 µM (S100A12) multimeric sTNF titrated by Ca2+-bound S100 protein; Trp fluorescence of sTNF, excitation 295/298 nm, intensity at 325 nm; 25 °C; 10 mM HEPES-NaOH, 150 mM NaCl, 1 mM CaCl2, pH 7.4; single site binding model; apparent; details: both partners purified

T1 sequence (P01375 other isoform, or with tags, fused parts or gaps): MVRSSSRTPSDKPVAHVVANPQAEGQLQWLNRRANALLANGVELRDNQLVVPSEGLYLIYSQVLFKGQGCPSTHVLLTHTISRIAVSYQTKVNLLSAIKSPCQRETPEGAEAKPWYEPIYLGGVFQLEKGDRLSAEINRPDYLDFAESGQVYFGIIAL

B1: Recombinant human S100A8 (natural protein, UniProt P05109 1-93, looked up)
chain: MLTELEKALNSIIDVYHKYSLIKGNFHAVYRDDLKKLLETECPQYIRKKGADVWFKELDINTDGAVNFQEFLILVIKMGVAAHKKSHEESHKE
notes: S100A8, human; Ca2+-loaded in the assay; source: E. coli, purified as previously described
Kd [1]: > 100000 nM

B2: Recombinant human S100A13 (natural protein, UniProt Q99584 1-98, looked up)
chain: MAAEPLTELEESIETVVTTFFTFARQEGRKDSLSVNEFKELVTQQLPHLLKDVGSLDEKMKSLDVNQDSELKFNEYWRLIGELAKEIRKKKDLKIRKK
notes: S100A13, human, UniProt ID Q99584 (printed in the methods of the database search); source: E. coli, purified as previously described
Kd1 (KD, ligand population 1) [2]: 2.4 nM
Kd2 (KD, ligand population 2) [2]: 4.3 nM
kd1 (koff, ligand population 1) [2]: 0.0009 s⁻¹
kd2 (koff, ligand population 2) [2]: 0.0073 s⁻¹

B3: Recombinant human S100A11 (natural protein, UniProt P31949 1-105, looked up)
chain: MAKISSPTETERCIESLIAVFQKYAGKDGYNYTLSKTEFLSFMNTELAAFTKNQKDPGVLDRMMKKLDTNSDGQLDFSEFLNLIGGLAMACHDSFLKAVPSQKRT
notes: S100A11, human, UniProt ID P31949 (printed in the methods of the database search); mainly dimeric by cross-linking at 4 µM; source: E. coli, purified as previously described
stoichiometry N [3]: 2
Kd [4]: 104 ± 23 nM
stoichiometry N [4]: 1
Kd1 (KD, ligand population 1) [2]: 28 nM
Kd2 (KD, ligand population 2) [2]: 695 nM
kd1 (koff, ligand population 1) [2]: 0.00018 s⁻¹
kd2 (koff, ligand population 2) [2]: 0.0084 s⁻¹

B4: Recombinant human S100A14 (natural protein, UniProt Q9HCY8 1-104, looked up)
chain: MGQCRSANAEDAQEFSDVERAIETLIKNFHQYSVEGGKETLTPSELRDLVTQQLPHLMPSNCGLEEKIANLGSCNDSKLEFRSFWELIGEAAKSVKLERPVRGH
notes: S100A14, human; Ca2+-loaded in the assay; source: E. coli, purified as previously described
Kd [1]: > 100000 nM

B5: Recombinant human S100A16 (natural protein, UniProt Q96FQ6 1-103, looked up)
chain: MSDCYTELEKAVIVLVENFYKYVSKYSLVKNKISKSSFREMLQKELNHMLSDTGNRKAADKLIQNLDANHDGRISFDEYWTLIGGITGPIAKLIHEQEQQSSS
notes: S100A16, human; Ca2+-loaded in the assay; source: E. coli, purified as previously described
Kd [1]: > 100000 nM

B6: Recombinant human S100A3 (natural protein, UniProt P33764 1-101, looked up)
chain: MARPLEQAVAAIVCTFQEYAGRCGDKYKLCQAELKELLQKELATWTPTEFRECDYNKFMSVLDTNKDCEVDFVEYVRSLACLCLYCHEYFKDCPSEPPCSQ
notes: S100A3, human; Ca2+-loaded in the assay; source: E. coli, purified as previously described
Kd [1]: > 100000 nM

B7: Recombinant human S100A5 (natural protein, UniProt P33763 1-92, looked up)
chain: METPLEKALTTMVTTFHKYSGREGSKLTLSRKELKELIKKELCLGEMKESSIDDLMKSLDKNSDQEIDFKEYSVFLTMLCMAYNDFFLEDNK
notes: S100A5, human; Ca2+-loaded in the assay; source: E. coli, purified as previously described
Kd [1]: > 100000 nM

B8: Recombinant human S100A7 (natural protein, UniProt P31151 1-101, looked up)
chain: MSNTQAERSIIGMIDMFHKYTRRDDKIEKPSLLTMMKENFPNFLSACDKKGTNYLADVFEKKDKNEDKKIDFSEFLSLLGDIATDYHKQSHGAAPCSGGSQ
notes: S100A7, human; Ca2+-loaded in the assay; source: E. coli, purified as previously described
Kd [1]: > 100000 nM

B9: Recombinant human S100A15 (natural protein, UniProt Q86SG5 1-101, looked up)
chain: MSNTQAERSIIGMIDMFHKYTGRDGKIEKPSLLTMMKENFPNFLSACDKKGIHYLATVFEKKDKNEDKKIDFSEFLSLLGDIAADYHKQSHGAAPCSGGSQ
notes: Ca2+-loaded in the assay; source: E. coli, purified as previously described
Kd [1]: > 100000 nM

B10: Recombinant human S100P (natural protein, UniProt P25815 1-95, looked up)
chain: MTELETAMGMIIDVFSRYSGSEGSTQTLTKGELKVLMEKELPGFLQSGKDKDAVDKLLKDLDANGDAQVDFSEFIVFVAAITSACHKYFEKAGLK
notes: S100P, human; Ca2+-loaded in the assay; source: E. coli, purified as previously described
Kd [1]: > 100000 nM

B11: Recombinant human S100A4 (natural protein)
chain: not shown
notes: S100A4, human; Ca2+-loaded in the assay; source: E. coli, purified as previously described
Kd [1]: > 100000 nM

B12: Recombinant human S100A12 (natural protein, UniProt P80511 1-92, looked up)
chain: MTKLEEHLEGIVNIFHQYSVRKGHFDTLSKGELKQLLTKELANTIKNIKDKAVIDEIFQGLDANQDEQVDFQEFISLVAIALKAAHYHTHKE
notes: S100A12, human, UniProt ID P80511 (printed in the methods of the database search); monomer and dimer by cross-linking at 4 µM; source: E. coli, purified as previously described
stoichiometry N [3]: 2
Kd [4]: 348 ± 50 nM
stoichiometry N [4]: 1
Kd1 (KD, ligand population 1) [2]: 2.3 nM
Kd2 (KD, ligand population 2) [2]: 8.4 nM
kd1 (koff, ligand population 1) [2]: 0.0018 s⁻¹
kd2 (koff, ligand population 2) [2]: 0.0023 s⁻¹

B13: Recombinant human S100B (natural protein, UniProt P04271 1-92, looked up)
chain: MSELEKAMVALIDVFHQYSGREGDKHKLKKSELKELINNELSHFLEEIKEQEVVDKVMETLDNDGDGECDFQEFMAFVAMVTTACHEFFEHE
notes: S100B, human; Ca2+-loaded in the assay; source: E. coli, purified as previously described
Kd [1]: > 100000 nM

B14: Recombinant human S100A2 (natural protein)
chain: not shown
notes: S100A2, human; Ca2+-loaded in the assay; source: E. coli, purified as previously described
Kd [1]: > 100000 nM

B15: Recombinant human S100A9 (natural protein, UniProt P06702 1-114, looked up)
chain: MTCKMSQLERNIETIINTFHQYSVKLGHPDTLNQGEFKELVRKDLQNFLKKENKNEKVIEHIMEDLDTNADKQLSFEEFIMLMARLTWASHEKMHEGDEGPGHHHKPGLGEGTP
notes: S100A9, human; Ca2+-loaded in the assay; source: E. coli, purified as previously described
Kd [1]: > 100000 nM
